# Data reported in article PMC5033319.
# Assay: recombinant expression in Sf9, not detailed
# Conditions: glycan lost; control: initial domain III preparation, sites intact
substance,measurement,value
EGFR domain III (EGFRD3): N328D and N420D,other: solubility,increases
